According to US20160152995A1, “METHODS AND COMPOSITIONS TO IMPROVE THE SPREAD OF CHEMICAL SIGNALS IN PLANTS” (PIONEER HI-BRED INTERNATIONAL, INC., priority 2013, published 2016):
Positions count from the first letter of the chain named.

B1: CsL4.2-22 (protein)
chain: MARLDKSKVINSALELLNEVGIEGLTTRKLAQKLGVEQPTLYWHVKNKRALLDALAIEMHDRHQTHYLPLEGESWQDFLRNFAKSMRRALLSHRDGAKIALGTRWTEQQYETAENMLAFLTQQGFSLENALYATDAVRVFTLGAVLLDQEQQVAKEERETPTPDSMPPLLRQAWELKDHQGAEPAFLFGLELIIAGLEKQLKRESGSHHHHHH
modifications: Sulfonylurea responsive repressor
B2: CsL4.2-28 (protein)
chain: B1 chain with H60M, F78Y, R88C, I99V, D135S, E156Q, D178V
modifications: Sulfonylurea responsive repressor
B3: CsL4.2-07 (protein)
chain: B1 chain with F78Y, R88C, D178V
modifications: Sulfonylurea responsive repressor
B4: CsL4.2-17 (protein)
chain: B1 chain with H60M, F78Y, R88C, I99V, D135S, P163T, D178V
modifications: Sulfonylurea responsive repressor
B5: CsL4.2-18 (protein)
chain: B1 chain with H60M, R88C, I99V, D135S, S165R, D178V, I193L
modifications: Sulfonylurea responsive repressor
B6: CsL4.2-16 (protein)
chain: B1 chain with H60M, F78Y, R88C, I99V, A100S, Q151G, K155N, S165R, D178V
modifications: Sulfonylurea responsive repressor
B7: CsL4.2-26 (protein)
chain: B1 chain with F78Y, R88C, I99V, A100S, D135S, S165R, D178V
modifications: Sulfonylurea responsive repressor
B8: CsL4.2-27 (protein)
chain: B1 chain with H60M, R88C, I99V, A100S, S165R, R171Q, D178E, E204D
modifications: Sulfonylurea responsive repressor
B9: CsL4.2-12 (protein)
chain: B1 chain with Q64G, I99V, D135S, Q151G, K155N, P163T, D178V
modifications: Sulfonylurea responsive repressor
B10: CsL4.2-04 (protein)
chain: B1 chain with R88C, I99V, K155N, E157G, P163T, D178E
modifications: Sulfonylurea responsive repressor
B11: CsL4.2-11 (protein)
chain: B1 chain with Q64G, F78Y, I99V, A100S, D135S, P163T, D178E, K202X
modifications: not fully specified; Sulfonylurea responsive repressor; VARIANT 202: Xaa = Any Amino Acid
B12: CsL4.2-24 (protein)
chain: B1 chain with F78Y, R88C, I99V, D135S, Q151G, K155N, D178V
modifications: Sulfonylurea responsive repressor
B13: CsL4.2-30 (protein)
chain: B1 chain with I99V, D135S, Q151G, K155N, D178V
modifications: Sulfonylurea responsive repressor
B14: CsL4.2-01 (protein)
chain: B1 chain with F78Y, I99V, Q151G, P163T, D178V
modifications: Sulfonylurea responsive repressor
B15: CsL4.2-21 (protein)
chain: B1 chain with H60M, Q64G, F82Y, I99V, F119C, D135S, K155N, P163T, D178V
modifications: Sulfonylurea responsive repressor
B16: CsL4.2-23 (protein)
chain: B1 chain with H60M, F78Y, R88C, I99V, D135S, S165R, D178V
modifications: Sulfonylurea responsive repressor
B17: CsL4.2-08 (protein)
chain: B1 chain with H60M, I99V, Q123H, D178V, H210Q
modifications: Sulfonylurea responsive repressor
B18: CsL4.2-15: top CsR hit of library CsL4.2 (protein)
chain: MARLDKSKVINSALELLNEVGIEGLTTRKLAQKLGVEQPTLYWHVKNKRALLDALAIEMHDRHQTHYLPLEGESWQDFLRNFAKSMRRALLSHRDGAKVSLGTRWTEQQYETAENMLAFLTQQGFSLENALYATDAVRVFTLGAVLLDQEQQVAKEERETPTTDSMPPLLRQAWELKVHQGAEPAFLFGLELIIAGLEKQLKRESGS
modifications: Sulfonylurea responsive repressor
B19: CsL4.2-20: Chlorsulfuron (Cs) repressor, top hit of library CsL4.2 (protein)
chain: B18 chain with R88L, T163P
modifications: Sulfonylurea responsive repressor

tested on: E. coli assay strain Km3; test: Liquid B-galactosidase assays of chlorsulfuron repressor hits (induction and repression); conditions: CsL4.2 hits; 20 ppb Cs vs no inducer
Procedure: In order to create new diversity for shuffling the top clone from CsL3 was subjected to error prone PCR mutagenesis using Mutazyme (Stratagene). The mutated PCR product encoding the CsR ligand binding domain was inserted into library expression vector pVER7334 as a Sac1 to Asc1 fragment, transformed into library strain Km3 and plated onto LB+40 ug/ml Kanamycin and 50 ug/ml Carbenecillin. Approximately 10,000 colonies were then replica plated onto M9 Xgal assay medium +/−20 ppb Cs. Putative hits were then re-arrayed and replica plated onto the same assay medium. Performance was gauged by the level of blue colony color after 24 hrs incubation on inducer (induction) and 72 hrs incubation without inducer (repression). The top hits were then subjected to liquid B-galactosidase assays for quantitative assessment (Table 21).
Seventh round library CsL4.2 was designed based on the best diversity from CsL3 and CsL3-MTZ library screens (Table 14). The library was assembled with oligonucleotides shown below in Table 22. The first and last primers were used as rescue primers. CsL4.2 included a C-terminal 6×His-tag extension to facilitate protein purification. The library was assembled and cloned into vector pVER7334 Sac1 to Asc1, transformed into library assay strain Km3 and plated onto LB+40 ug/m1 Kanamycin and 50 ug/ml carbenecillin. Approximately 8,000 colonies were re-arrayed into 384-well format and replica plated onto M9 Xgal assay medium +/−2 ppb Cs. Putative hits were re-arrayed in 96-well format onto the same media for re-testing. Confirmed hits were then tested for induction and repression aspects in liquid culture using B-galactosidase assays.
Mutagenesis reactions were transformed into E. coli assay strain Km3 and plated onto LB+50 ug/ml Carbenecillin. Colonies were then re-arrayed into 384 well format and replica plated onto M9 Xgal assay medium +/−5 ppb Chlorsulfuron. Putative hits were then re-arrayed and analyzed by B-galactosidase assays relative to the parent clones (FIG. 10).

| Molecule | F. IND = fold induction (IND/REP) (B-galactosidase) |
| --- | --- |
| B1 | 20.8 |
| B2 | 11.3 |
| B3 | 18.9 |
| B4 | 9.7 |
| B5 | 9.3 |
| B6 | 15.2 |
| B7 | 10.6 |
| B8 | 9.1 |
| B9 | 9.5 |
| B10 | 10.2 |
| B11 | 8.9 |
| B12 | 14.3 |
| B13 | 10.8 |
| B14 | 9.8 |
| B15 | 13.2 |
| B16 | 10.5 |

same assay, conditions: CsL4.2 hits; liquid B-galactosidase assay, 20 ppb Cs

| Molecule | IND = induction with 20 ppb CS (B-galactosidase) |
| --- | --- |
| B1 | 5.4 |
| B2 | 5.3 |
| B3 | 6.5 |
| B4 | 3.1 |
| B5 | 6.8 |
| B6 | 3.8 |
| B7 | 3.1 |
| B8 | 3.2 |
| B9 | 6.4 |
| B17 | 10.7 |
| B10 | 4.3 |
| B11 | 4.8 |
| B12 | 5.4 |
| B13 | 4.9 |
| B14 | 3.8 |
| B15 | 3.2 |
| B16 | 10.4 |
| B18 | 4.0 |
| B19 | 7.4 |

same assay, conditions: CsL4.2 hits; liquid B-galactosidase assay, no inducer

| Molecule | REP = repression in absence of inducer (B-galactosidase) |
| --- | --- |
| B1 | 0.3 |
| B2 | 0.5 |
| B3 | 0.3 |
| B4 | 0.3 |
| B5 | 0.7 |
| B6 | 0.3 |
| B7 | 0.3 |
| B8 | 0.4 |
| B9 | 0.7 |
| B17 | 0.7 |
| B10 | 0.4 |
| B11 | 0.5 |
| B12 | 0.4 |
| B13 | 0.5 |
| B14 | 0.4 |
| B15 | 0.2 |
| B16 | 1.0 |
| B18 | 0.2 |
| B19 | 0.2 |
